Assay results reported in US20240083996A1, “COMPOSITION FOR PROPHYLAXIS OR TREATMENT OF IL-8 RELATED DISEASES” (Chugai Seiyaku Kabushiki Kaisha, priority 2016, published 2024).

How the values were obtained:
[1] = test system: endometriosis nodular lesions and adhesion; type: in vivo, cynomolgus monkeys
Excerpt: Female cynomolgus monkeys of 8 to 14 years of age with regular sexual cycle (provided by the Tsukuba Primate Research Center at the National Institutes of Biomedical Innovation, Health and Nutrition) were laparotomized under anesthesia during the period corresponding to the luteal phase. The uterine corpus was removed by dissecting in a V shape. Then, the uterine corpus was cut into 5 to 10 mm cubes while leaving the smooth muscle layer of the uterus, and one and two pieces were transplanted onto the right abdominal wall and left abdominal wall (cranial and caudal sides), respectively, in such a manner that the endometrium part is in contact with the peritoneum by suturing with an absorbable suture and formed the transplant. After excision, the uterus was sutured with absorbable suture. Then, the remaining endometrial tissues were finely cut and suspended in 5 ml of 2 ng/ml Hepatocyte Growth Factor solution (R&D systems), and this was seeded in the peritoneal cavity for transplantation, followed by closure of the abdomen. Anesthesia was performed using balanced anesthesia of ketamine/xylazine (mixed at an adequate ratio of about 2:1); however, anesthesia was maintained with isoflurane depending on the maintenance period of anesthesia. The body temperature was maintained and controlled during surgery using a heating pad and the condition was monitored electrocardiographically. The antagonist Antisedan (at roughly the same amount as that of xylazine) and antibiotic cephradine were administered at the time of awakening after surgery. The pain reliever Zalban was administered for two days after surgery, and the monkeys were observed regularly every day to confirm the absence of post-surgical abnormalities. In laparoscopic observation, anesthesia and post-surgical monitoring were also performed in the same way.
Laparoscopic observation was carried out four months, nine months (3 months after administration), and 12 months (6 months after administration) following the surgical induction of endometriosis described above, and the pathological conditions of endometriosis were assessed as follows.
The abdomen was incised in the median line under anesthesia, and laparoscopic observation was performed by inserting a trocar and then introducing a laparoscope. The laparoscope was connected to a video system (KARL STORZ) and a monitor. The monitor was used for intraperitoneal observation, and the video system was used for recording. Then, the peritoneal cavity was filled with carbon dioxide gas using Intra-abdominal Insufflation Unit (OLYMPUS) to expand the abdomen, and graduated bars and forceps were inserted from the ventral portion. The size of the lesion was measured using the graduated bar or graduated forceps.
The sizes (width, height, and depth) of nodular lesions formed by suturing the endometrial tissues were measured and the volumes were calculated based on: width (mm)×height (mm)×depth (mm). The lesions and adhesion formed by seeding endometrial tissues after fine cutting were assessed for the site, area, and depth of adhesion and the size of lesion by laparoscopic observation based on modified r-AFS score modified for monkeys from the r-AFS score for clinical use. […] The item on adhesion to the vesicouterine pouch was added, because in the monkey model, the frequency of adhesion to the urinary bladder is higher than in humans. The method for assessing adhesion to the urinary bladder was the same scoring as that used for adhesion to the Douglas' pouch. • 2. Since monkey's body and organ sizes are smaller than those of humans, the criteria of lesion size scoring were altered to: <3 mm, 3-10 mm, and >10 mm.
Based on the results of laparoscopic observation four months after induction, the individuals that met the criteria were selected and grouped. The criteria for the selection are as follows: • 1. Engraftment of endometrial transplant confirmed on the laparoscopic observation four months after induction. • 2. […]

adenomyosis lesions = experiment: Adenomyosis complication in surgically-induced endometriosis monkey models; type: in vivo, cynomolgus monkeys; settings: one case per group, compared to the vehicle group (FIG. 37)
Excerpt: After the final laparoscopic observation six months after the start of antibody administration in surgically-induced endometriosis monkey models, the uteri collected during autopsy were fixed with 10% neutral buffered formalin and HE-stained for observation. Endometrial tissues analogous to those of adenomyosis were strongly seen in the uterus in one case of the vehicle group as well as in one case of the antibody administration group. […] Thus, the monkeys were considered as being a human adenomyosis complication model, and the endometrial tissues in the myometria of these single cases were compared.

post-surgical adhesion = experiment: Adhesion after surgery (area surrounding the incision site) in surgically-induced endometriosis monkey models; type: in vivo, cynomolgus monkeys; settings: 10 mg/kg; two months before versus six months after initiation of administration, five evaluators
Experimental: Specifically, adhesion to the area surrounding the incision site on the abdominal wall was compared before and after administration and evaluated by five evaluators on a three-point scale: (1) Improved, (2) Stable, and (3) Progressed. Ratings with a consensus among three or more of the five evaluators were adopted; otherwise (2) Stable was used. Evaluations were carried out on six monkeys in the vehicle group as well as seven monkeys in the antibody […]/[…]-[…] administration group. […] The monkey with “Progressed” was an individual in which the blood concentration of antibody […]/[…]-[…] had decreased due to anti-antibody production.

[2] = test system: soluble forms of FcγRIa and FcγRIIIa in human and cynomolgus monkey; experiment: Binding to various FcγRs (BIACORE T200); settings: 20° C., HBS-EP+ (FIG. 27)
Experimental: Soluble FcγRIa and FcγRIIIa in both human and cynomolgus monkey were produced in the form of His-tagged molecules by methods known to those of ordinary skill in the art. […] Next, soluble FcγRIa or FcγRIIIa was injected with a running buffer (used as a reference solution), and was made to interact with the antibodies captured onto the sensor chip. HBS-EP+ (GE Healthcare) was used as the running buffer, and HBS-EP+ was also used to dilute the soluble FcγRIa or FcγRIIIa. […] All measurements were carried out at 20° C.

[3] = 10 mg/kg i.v. q4w, six months of administration
[4] = Table 26, proliferation lesion, per nodular lesion (animals 112, 105, 106, 121, 119, 123; sites R, L1, L2), 10 mg/kg

B1: H1009/L395-F1974m: H1009-F1974m (SEQ ID NO:36) heavy chain, L395-kOMT light chain; the anti-IL-8 antibody of Table 29 (antibody)
heavy: QVQLVESGGGLVQPGGSLRLSCAASGFTFSDYYLSWVRQAPGKGLEWVGLIRNKDNYHTPEYSASVKGRFTISRDDSKNSLYLTMSDLKTEDTAVYYCARENHRYDVELAYWGQGTLVTVSSASTKGPSVFPLAPSSKSTSGGTAALGCLVKDYFPEPVTVSWNSGALTSGVHTFPAVLQSSGLYSLSSVVTVPSSSLGTQTYICNVNHKPSNTKVDKKVEPKSCDKTHTCPPCPAPELRRGPSVFLFPPKPKDTLMISRTPEVTCVVVDVSHEDPEVKFNWYVDGVEVHNAKTKPREEQYNSTYRVVSVLTVLHQDWLNGKEYKCKVSNKGLPSSIEKTISKAKGQPREPQVYTLPPSREEMTKNQVSLTCLVKGFYPSDIAVEWESNGQPENNYKTTPPVLDSDGSFFLYSKLTVDKSRWQQGNVFSCSVLHEALHAHTTRKELSLSP
light: DIQMTQSPSSLSASVGDRVTITCRASEIIYSYLAWYQQKPGKAPKLLIYKAKTHADGVPSRFSGSGSGTDFTFTISSLQPEDIATYYCKHHFGFPRTFGQGTKVEIKRTVAAPSVFIFPPSDEQLKSGTASVVCLLNNFYPREAKVQWKVDNALQSGNSQESVTEQDSKDSTYSLSSTLTLSKADYEKHKVYACEVTHQGLSSPVTKSFNRGEC
frequency of nodular lesions of type A: proliferative, ≥500 mm3 [1, 3]: 0%
frequency of nodular lesions of type B: proliferative, <500 mm^3 [1, 3]: 8%
frequency of nodular lesions of type C: no change [1, 3]: 33%
frequency of nodular lesions of type D: decreased [1, 3]: 58%
number of nodular lesions of type A: proliferative, ≥500 mm3 / lesions analysed [1, 3]: (0/12)
number of nodular lesions of type B: proliferative, <500 mm^3 / lesions analysed [1, 3]: (1/12)
number of nodular lesions of type C: no change / lesions analysed [1, 3]: (4/12)
number of nodular lesions of type D: decreased / lesions analysed [1, 3]: 7/12 and (7/12)
Atrophy/decrease, stromal cell (P) [1, 4]: ±
Decreased insterstitium (P) [1, 4]: ±
change of size r-AFS score ([1]; after minus before administration, versus vehicle group (FIG. 35-1)): tended to decrease
change of total r-AFS score ([1]; after minus before administration, versus vehicle group, p=0.0070 (FIG. 35-1)): clearly decreased as compared to the vehicle group
change of adhesion score ([1]; after minus before administration, versus vehicle group, p=0.0096 (FIG. 35-1)): clearly decreased as compared to the vehicle group
frequency of deep lesions (endometriosis gland ducts invaded up to the muscle layer of abdominal wall) ([1]; anti-antibody-positive individuals excluded, vehicle group 5/18 lesions): 1/11
muscle tissue regeneration ([1]; autopsy): muscle tissue regeneration, which was not seen in the vehicle group, was observed
histopathology of the grafts and grafted sites (HE staining) ([1]; autopsy after final laparoscopic observation, compared to the vehicle group): atrophic changes of proliferative epithelia and stromal cells as well as reduction of the interstitium whose major component is collagenous fibers was observed
number of lesions with hemosiderin / lesions ([1]; autopsy, vehicle group 9/16): 4/17
frequency of lesions with hemosiderin ([1]; autopsy, vehicle group 56%): 24%
total modified r-AFS score before and after administration ([1]; scores recorded during laparoscopic surgery, Wilcoxon's signed-rank-sum test, P=0.875 (FIG. 35-2)): the score did not change
histopathology of adenomyosis lesions in the uterus (HE staining) (adenomyosis lesions): atrophy of endometrial epithelia in the adenomyosis lesions as well as reduction and atrophy of stromal cells were observed
adhesion to the area surrounding the incision site: Improved (monkeys/group) (post-surgical adhesion): 6/7
adhesion to the area surrounding the incision site: Progressed (monkeys/group) (post-surgical adhesion): 1/7
adhesion to the area surrounding the incision site: Stable (monkeys/group) (post-surgical adhesion): 0/7
binding to FcγRs (hFcγRIa, hFcγRIIIa, cynoFcγRIa, cynoFcγRIIIa) [2]: not to bind to any of the FcγRs
